Here are results for three molecules from patent US8158851B2, “Transgenic high tryptophan plants” (Monsanto Technology LLC, priority 2002, dated 2012).

In data set [1] the test system is soy seed. Description: Free amino acid analysis of soy seed (tryptophan content). The class given is in vivo, Glycine max. The following applies: R1 soy seeds expressing the mutant protein. How it is done: Amino Acid Extraction: About 50 mg of crushed soy seed (5 mg of Arabidopsis) material was placed in each centrifuge vial. One milliliter of 5% trichloroacetic acid was added to each sample (100 μl for Arabidopsis). The samples were vortexed, and allowed to sit, with agitation, at room temperature for 15 min. They were then microcentrifuged for 15 min at 14000 rpm. Some of the supernatant was then removed, placed in a HPLC vial and sealed. Samples were kept at 4° C. in the analysis queue.
Amino Acid Analysis: The reagents utilized for amino acid analysis included the OPA reagent (o-phthalaldehyde and 3-mercaptopropionic acid in borate buffer (Hewlett-Packard, PN 5061-3335)) where the borate buffer (0.4 N in water, pH 10.2). The analysis was performed using the Agilent 1100 series HPLC system as described in the Agilent Technical Publication, “Amino Acid Analysis Using Zorbax Eclipse-AAA Columns and the Agilent 1100 HPLC”, Mar. 17, 2000. First, 0.5 μl of the sample was derivatized with 2.5 μl of OPA reagent in 10 μl of borate buffer. Second, the derivative is injected onto a Eclipse XDB-C18 5 μm, 4.6×150 mm column using a flow rate of 1.2 ml/min. Amino acid concentrations were measured using fluorescence: excitation at 340 nm, emission at 450 nm. Elution was with a gradient of HPLC Buffers A and B according to Table A, where HPLC Buffer A was 40 mM Na2HPO4, pH=7.8 and HPLC Buffer B was 9:9:2::Methanol:Acetonitrile:Water.
Amino acid standards were prepared from the dry chemicals, using all amino acids of interest. Proline analysis required an additional derivatization step with 9-fluorenylmethyl-chloroformate (FMOC). Amino acid standards were also sometimes purchased in concentrations ranging from 0 to 100 μg/ml. Samples were reported in μg/g of seed powder.
Mature R1 seed is produced and analyzed for free amino acid content using fluorescence detection as described in Agilent Technologies Technical Bulletin REV14. Five seeds are chosen for single seed analysis from each event. […] The highest levels of tryptophan have a negative impact on germination.

Data set [2] relates to Agrobacterium tumefaciens AS. Description: Anthranilate synthase enzyme assay and kinetic analysis of purified enzymes. It counts as biochemical. The following applies: for Km: 25° C. How it is done: Agrobacterium tumefaciens AS wild type and mutant enzymes were expressed in E. coli as described in Example 1. The purification of all the Agrobacterium tumefaciens AS enzymes, including wild type and mutants thereof, was performed at 4° C. The cells (approximate wet weight of 1 g) were suspended in 20 ml of purification buffer (50 mM potassium phosphate, pH 7.3, 10 mM MgCl2, 10 mM 2-mercaptoethanol, 10% glycerol) and lysed by ultrasonication (Branson sonifier Cell Disruptor, W185). Supernatant was collected after centrifugation of the homogenate at 20,000×g for 15 min. The supernatant was subjected to ammonium sulfate fractionation (30 to 65% saturation). The precipitate was collected after centrifugation at 20,000×g for 15 min and dissolved in 3 ml of the purification buffer and then loaded as a whole on an Econo-Pac 10DG desalting column, pre-equilibrated with the same buffer. Fractions containing the enzyme were detected by the developed assay and pooled. The pooled enzyme (4.3 mls) was loaded on a 10 ml DEAF Sephacel (Pharmacia Biotech) column (1.5×7.5 cm) equilibrated with the same buffer. The column was washed with 30 ml of the purification buffer and the enzyme was eluted with 30 ml of 50 mM NaCl in the same buffer. Fractions containing high AS activity were pooled and precipitated by 65% ammonium sulfate saturation and isolated and desalted as above. Fractions containing the enzyme were pooled and stored at −80° C.
The standard assay for Agrobacterium tumefaciens AS was performed at 25° C. in an assay buffer containing 100 mM potassium phosphate, pH 7.0, 10 mM MgCl2, 1 mM dithiothreitol, 200 μM chorismate and 10 mM L-glutamine. The reaction was started by adding 30 μl of enzyme to the reaction mixture and mixing. The formation of anthranilate was directly monitored by the absorbance increase at 320 m for 3 minutes. Initial rate of reaction was calculated as unit absorbance increase per second based on the slope of the absorbance change over the reaction time. Km for chorismate (Km^Cho) was determined in the total volume of 1 ml assay buffer containing 100 mM potassium phosphate, pH 7.0, 10 mM MgCl2, 1 mM dithiothreitol with 10 mM L-glutamine and varying the concentration of chorismate between 2.5-100 μM chorismate. The Km for glutamine (Km^Gln) was determined in the total volume of 1 ml assay buffer containing 100 mM potassium phosphate, pH 7.0, 10 mM MgCl2, 1 mM dithiothreitol with 200 μM chorismate and varying the concentration of L-glutamine between 0.1-2 mM L-glutamine. IC50 for tryptophan (IC50^Trp) was determined with in the total volume of 1 ml assay buffer containing 100 mM potassium phosphate, pH 7.0, 10 mM MgCl2, 1 mM dithiothreitol, 10 mM L-glutamine, 200 μM chorismate and varying the concentration of L-tryptophan between 0.1-10 mM L-tryptophan. Kinetic parameters and IC50 of AS were calculated after fitting the data to a non-linear regression program (GraFit).

Substitutions are numbered along the chain they refer to. Read-outs that look alike come from different tables or passages of the source.

B1: V48Y (protein)
chain: MVTIIQDDGAETYETKGGIQVSRKRRPTDYANAIDNYIEKLDSHRGAYFSSNYEYPGRYTRWDTAIVDPPLGISCFGRKMWIEAYNGRGEVLLDFITEKLKATPDLTLGASSTRRLDLTVNEPDRVFTEEERSKIPTVFTALRAIVDLFYSSADSAIGLFGAFGYDLAFQFDAIKLSLARPEDQRDMVLFLPDEILVVDHYSAKAWIDRYDFEKDGMTTDGKSSDITPDPFKTTDTIPPKGDHRPGEYSELVVKAKESFRRGDLFEVVPGQKFMERCESNPSAISRRLKAINPSPYSFFINLGDQEYLVGASPEMFVRVSGRRIETCPISGTIKRGDDPIADSEQILKLLNSKKDESELTMCSDVDRNDKSRVCEPGSVKVIGRRQIEMYSRLIHTVDHIEGRLRDDMDAFDGFLSHAWAVTVTGAPKLWAMRFIEGHEKSPRAWYGGAIGMVGFNGDMNTGLTLRTIRIKDGIAEVRAGATLLNDSNPQEEEAETELKASAMISAIRDAKGTNSAATKRDAAKVGTGVKILLVDHEDSFVHTLANYFRQTGATVSTVRSPVAADVFDRFQPDLVVLSPGPGSPTDFDCKATIKAARARDLPIFGVCLGLQALAEAYGGELRQLAVPMHGKPSRIRVLEPGLVFSGLGKEVTVGRYHSIFADPATLPRDFIITAESEDGTIMGIEHAKEPVAAVQFHPESIMTLGQDAGMRMIENVVVHLTRKAKTKAA
modifications: An A. tumefaciens mutant.
Turning to B1, in data set [1], the amounts of tryptophan entry is reported as “very high amounts of tryptophan”.

B2: F298A (protein)
chain: B1 chain with Y48V, F298A
modifications: An A. tumefaciens mutant.
With B2, the Michaelis-Menten constant (Km) in data set [2] (pH 7.0, 200 μM chorismate, L-glutamine varied, read-out: Km^Gln) came out at 100 µM; in data set [2] (pH 7.0, 10 mM L-glutamine, chorismate varied, read-out: Km^Cho) it was 9.2 µM. Further, the concentration for half-maximal inhibition (IC50) in data set [2] (inhibition by L-tryptophan, 10 mM L-glutamine, 200 μM chorismate) was found to be 5.5 µM. The kcat in data set [2] (purified enzyme from E. coli) was 0.46 s⁻¹.

B3: S51C (protein)
chain: B1 chain with Y48V, S51C
modifications: An A. tumefaciens mutant.
For the molecule B3, the amounts of tryptophan result in data set [1] is recorded as “very high amounts of tryptophan”.

For orientation: Km means the concentration of substrate that gives half-maximal velocity. In general, IC50 refers to the concentration at which inhibition is half-maximal. Read a high IC50 as a need for much substance. The term kcat denotes the maximal rate divided by the concentration of active sites.
